Test results from patent CN118307667A (INST PATHOGEN BIOLOGY CAMS, dated 2024).

B1: RSFP2D9抗体 (antibody, V domains shown)
VH: EVQLVESGGGLVQPGGSLRLSCAASGFTFSTYEMNWVRQAPGKGLEWISYISVSGATIYYADSVKGRFTISRDNAKSSVYLQMTSLRPEDTAIYYCARDNSLTDYGSGLYWGQGTTVTVSS
VL: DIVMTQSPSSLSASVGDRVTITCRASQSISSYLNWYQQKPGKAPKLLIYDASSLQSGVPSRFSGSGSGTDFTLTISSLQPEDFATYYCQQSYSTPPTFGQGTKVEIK
B2: RSFP2B6抗体 (antibody, V domains shown)
VH: QVQLVQSGGALAQPGRSLRLSCTTSGFTFGDYAVNWVRQAPGKGLEWVGIVRTEPYGGTTEYSASVKGRFIISRDDSKGIAYLQMNSLKTEDTGVYYCSQPILNVDVWGQGTTVTVSS
VL: NFMLTQPHSVSESPGKTVTISCTRSSGSFGSDYVQWYQQRPGSAPNTVIYENNQRPSGVPDRFSGSIDSSSNSASLTISGLKTEDEADYYCQSYDDNTPWVFGGGTELTVL
B3: RSFP2G7抗体 (antibody, V domains shown)
VH: QVQLVQSGTEVRKPGSSVKVSCTASGGTFSIYDIFWVRQAPGQGLEWMGRIIPILDQIDYAQKFEGRVTITADKGRKTVYMELSSLRSDDTAVYYCARPPDTYDNIERWGPGTLVTVSS
VL: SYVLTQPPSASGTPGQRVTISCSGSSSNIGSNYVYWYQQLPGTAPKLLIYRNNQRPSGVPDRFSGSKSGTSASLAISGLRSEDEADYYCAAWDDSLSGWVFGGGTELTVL

Target: RSV-A2 F假病毒上的F蛋白 (参考序列Uniprot:P03420) (RSV A2, UniProt P03420 26-574)
Sequence (P03420 26-574, one chain of several): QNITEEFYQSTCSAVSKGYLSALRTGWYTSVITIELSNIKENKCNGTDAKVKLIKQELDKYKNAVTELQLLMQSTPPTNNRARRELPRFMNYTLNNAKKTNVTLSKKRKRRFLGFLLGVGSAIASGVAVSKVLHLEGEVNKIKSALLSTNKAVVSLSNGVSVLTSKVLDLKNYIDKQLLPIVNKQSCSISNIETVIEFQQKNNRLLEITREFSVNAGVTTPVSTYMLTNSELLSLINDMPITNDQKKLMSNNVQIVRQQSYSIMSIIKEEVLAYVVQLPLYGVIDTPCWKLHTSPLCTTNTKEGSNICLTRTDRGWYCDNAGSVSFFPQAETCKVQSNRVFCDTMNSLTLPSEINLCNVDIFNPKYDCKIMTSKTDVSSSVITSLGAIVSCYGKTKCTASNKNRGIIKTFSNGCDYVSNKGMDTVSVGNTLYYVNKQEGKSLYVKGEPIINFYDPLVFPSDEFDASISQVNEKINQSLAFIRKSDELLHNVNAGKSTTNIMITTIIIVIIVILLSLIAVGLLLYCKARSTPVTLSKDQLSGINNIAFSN
Assay: cell-based or functional assay

Point of comparison: B3, “中和IC50 (RSV-A2假病毒, luciferase, 293T细胞)” value 1.7 µg/mL. Against it:
- B1 — 3.2-fold lower, 0.532 µg/mL
- B2 — 2.3-fold higher, 3.89 µg/mL

Target: RSV(strain A2)病毒的F蛋白 (RSV (strain A2), UniProt P03420 26-574)
Sequence (P03420 26-574): as the sequence (P03420 26-574, one chain of several) above
Assay: cell-based or functional assay

Point of comparison: B3, “中和IC50 (RSV strain A2活病毒, focus count, 293T细胞)” value 0.734 µg/mL. Against it:
- B1 — 14-fold lower, 0.054 µg/mL
- B2 — within 1.5-fold, 1 µg/mL
